From patent US20250277045A1 come the findings set out here.

The target of this experiment is human BCMA recombinant antigen (human) (UniProt Q02223). The experiment is described as follows: competition ELISA, coated human BCMA, antibody varied, then biotinylated human APRIL at 240 ng/mL, SA-HRP.
human BCMA recombinant antigen (human), sequence (Q02223 1-53): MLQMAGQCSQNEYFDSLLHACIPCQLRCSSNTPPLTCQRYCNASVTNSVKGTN

Turning to REGN5458 (bispecific antibody), the IC50 (read off the curve) is 3 nM.
